The data set concerns the target recombinant SARS-Cov-2 nucleocapsid protein (NP2), P0DTC9.

B1: recombinant MASP-2 (rMASP-2) of Example 23 (protein)
chain: TPLGPKWPEPVFGRLASPGFPGEYANDQERRWTLTAPPGYRLRLYFTHFDLELSHLCEYDFVKLSSGAKVLATLCGQESTDTERAPGKDTFYSLGSSLDITFRSDYSNEKPFTGFEAFYAAEDIDECQVAPGEAPTCDHHCHNHLGGFYCSCRAGYVLHRNKRTCSALCSGQVFTQRSGELSSPEYPRPYPKLSSCTYSISLEEGFSVILDFVESFDVETHPETLCPYDFLKIQTDREEHGPFCGKTLPHRIETKSNTVTITFVTDESGDHTGWKIHYTSTAQPCPYPMAPPNGHVSPVQAKYILKDSFSIFCETGYELLQGHLPLKSFTAVCQKDGSWDRPMPACSIVDCGPPDDLPSGRVEYITGPGVTTYKAVIQYSCEETFYTMKVNDGKYVCEADGFWTSSKGEKSLPVCEPVCGLSARTTGGRIYGGQKAKPGDFPWQVLILGGTTAAGALLYDNWVLTAAHAVYEQKHDASALDIRMGTLKRLSPHYTQAWSEAVFIHEGYTHDAGFDNDIALIKLNNKVVINSNITPICLPRKEAESFMRTDDIGTASGWGLTQRGFLARNLMYVDIPIVDHQKCTAAYEKPPYPRGSVTANMLCAGLESGGKDSCRGDSGGALVFLDSETERWFVGGIVSWGSMNCGEAGQYGVYTKVINYIPWIENIISDF
Regarding B1, the “C4 cleavage on NP2-coated wells (SDS-PAGE Western blot)” value is “a new band corresponding to C4′α”.
